Source: PMC9482650, “Quantitative fragmentomics allow affinity mapping of interactomes” (Nature Communications, 2022)

T1: CARD11, Q9BXL7
T1 sequence (Q9BXL7 662-765, limits assumed, looked up): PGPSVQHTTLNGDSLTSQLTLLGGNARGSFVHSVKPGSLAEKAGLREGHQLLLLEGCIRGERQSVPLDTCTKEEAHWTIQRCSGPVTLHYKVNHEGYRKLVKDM

T2: GRIP1_2, Q9Y3R0
T2 sequence (Q9Y3R0 145-248, limits assumed, looked up): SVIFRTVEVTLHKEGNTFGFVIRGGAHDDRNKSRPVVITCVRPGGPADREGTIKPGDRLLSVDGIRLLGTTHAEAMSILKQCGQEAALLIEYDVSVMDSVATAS

T3: HTRA4, P83105
T3 sequence (P83105 378-476, limits assumed, looked up): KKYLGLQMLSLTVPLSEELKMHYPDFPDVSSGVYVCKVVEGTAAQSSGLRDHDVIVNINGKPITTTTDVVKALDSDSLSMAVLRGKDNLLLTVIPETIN

T4: NHERF3_3, Q5T2W1
T4 sequence (Q5T2W1 238-333, limits assumed, looked up): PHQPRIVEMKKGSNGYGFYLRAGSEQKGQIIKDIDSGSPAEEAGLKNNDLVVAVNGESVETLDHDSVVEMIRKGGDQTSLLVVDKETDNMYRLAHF

T5: NHERF3_4, Q5T2W1
T5 sequence (Q5T2W1 373-468, limits assumed, looked up): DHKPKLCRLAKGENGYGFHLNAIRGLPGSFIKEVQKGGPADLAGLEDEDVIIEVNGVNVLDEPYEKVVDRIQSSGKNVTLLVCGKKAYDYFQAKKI

T6: PDZD2_2, O15018
T6 sequence (O15018 329-429, limits assumed, looked up): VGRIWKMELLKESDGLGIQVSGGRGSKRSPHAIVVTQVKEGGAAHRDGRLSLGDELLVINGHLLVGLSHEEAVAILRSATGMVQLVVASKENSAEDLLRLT

T7: SIPA1L2, Q9P2F8
T7 sequence (Q9P2F8 945-1036, limits assumed, looked up): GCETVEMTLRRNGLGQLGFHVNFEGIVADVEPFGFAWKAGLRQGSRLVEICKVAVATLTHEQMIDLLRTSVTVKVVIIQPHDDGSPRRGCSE

T8: SNTA1, Q13424
T8 sequence (Q13424 82-180, limits assumed, looked up): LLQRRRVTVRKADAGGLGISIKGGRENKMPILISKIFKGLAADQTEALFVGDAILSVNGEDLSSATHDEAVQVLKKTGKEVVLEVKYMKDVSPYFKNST

T9: SNTG1, Q9NSN8
T9 sequence (Q9NSN8 52-150, limits assumed, looked up): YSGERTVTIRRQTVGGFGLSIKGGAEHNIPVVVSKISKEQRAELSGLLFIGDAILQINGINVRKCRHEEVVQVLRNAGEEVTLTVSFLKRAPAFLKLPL

T10: TJP3_3, O95049
T10 sequence (O95049 375-456, limits assumed, looked up): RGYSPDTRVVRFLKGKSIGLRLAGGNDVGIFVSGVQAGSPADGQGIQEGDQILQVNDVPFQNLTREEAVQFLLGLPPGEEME


Target: T1, CARD11, Q9BXL7
Assay: holdup assay
Parameters: key: below the threshold = too weak to quantify, mostly under pKd 3.1 to 4
Conditions: plain residues with an end cap or a label only (N-terminal biotin on a linker: ado-ado)

Binder | pKd
TKDKVQETQI [LRRC4, Q9HBW1] | below the threshold
LVEEEEPMNL [HDAC7, Q8WUI4] | below the threshold

Target: CASK, O14936
Assay: holdup assay
Parameters: key: below the threshold = too weak to quantify, mostly under pKd 3.1 to 4
Conditions: plain residues with an end cap or a label only (N-terminal biotin on a linker: ado-ado)

CASK, O14936, sequence (O14936 487-570): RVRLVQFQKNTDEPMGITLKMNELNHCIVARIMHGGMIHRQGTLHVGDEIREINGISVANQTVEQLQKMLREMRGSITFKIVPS

Binder | pKd
TKDKVQETQI [LRRC4, Q9HBW1] | below the threshold
LVEEEEPMNL [HDAC7, Q8WUI4] | below the threshold

Target: DLG2_2, Q15700
Assay: holdup assay
Parameters: key: below the threshold = too weak to quantify, mostly under pKd 3.1 to 4
Conditions: plain residues with an end cap or a label only (N-terminal biotin on a linker: ado-ado)

DLG2_2, Q15700, sequence (Q15700 189-283): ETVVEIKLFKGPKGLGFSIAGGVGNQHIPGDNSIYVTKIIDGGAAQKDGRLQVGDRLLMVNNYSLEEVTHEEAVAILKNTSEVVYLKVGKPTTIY

Binder | pKd
TKDKVQETQI [LRRC4, Q9HBW1] | 4.67
LVEEEEPMNL [HDAC7, Q8WUI4] | below the threshold

Target: FRMPD2_1, Q68DX3
Assay: holdup assay
Parameters: key: below the threshold = too weak to quantify, mostly under pKd 3.1 to 4
Conditions: plain residues with an end cap or a label only (N-terminal biotin on a linker: ado-ado)

FRMPD2_1, Q68DX3, sequence (Q68DX3 770-861): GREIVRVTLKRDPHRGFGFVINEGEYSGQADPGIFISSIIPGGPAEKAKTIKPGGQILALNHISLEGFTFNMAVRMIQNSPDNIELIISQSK

Binder | pKd
TKDKVQETQI [LRRC4, Q9HBW1] | below the threshold
LVEEEEPMNL [HDAC7, Q8WUI4] | below the threshold

Target: GOPC, Q9HD26
Assay: holdup assay
Parameters: key: below the threshold = too weak to quantify, mostly under pKd 3.1 to 4
Conditions: plain residues with an end cap or a label only (N-terminal biotin on a linker: ado-ado)

Binder | pKd
TKDKVQETQI [LRRC4, Q9HBW1] | 4.47
LVEEEEPMNL [HDAC7, Q8WUI4] | below the threshold

Target: T2, GRIP1_2, Q9Y3R0
Assay: holdup assay
Parameters: key: below the threshold = too weak to quantify, mostly under pKd 3.1 to 4
Conditions: plain residues with an end cap or a label only (N-terminal biotin on a linker: ado-ado)

Binder | pKd
TKDKVQETQI [LRRC4, Q9HBW1] | below the threshold
LVEEEEPMNL [HDAC7, Q8WUI4] | below the threshold

Target: GRIP2_3, Q9C0E4
Assay: holdup assay
Parameters: key: below the threshold = too weak to quantify, mostly under pKd 3.1 to 4
Conditions: plain residues with an end cap or a label only (N-terminal biotin on a linker: ado-ado)

GRIP2_3, Q9C0E4, sequence (Q9C0E4 238-339): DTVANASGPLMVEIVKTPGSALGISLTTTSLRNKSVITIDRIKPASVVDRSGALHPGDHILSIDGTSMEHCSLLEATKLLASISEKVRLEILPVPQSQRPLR

Binder | pKd
TKDKVQETQI [LRRC4, Q9HBW1] | below the threshold
LVEEEEPMNL [HDAC7, Q8WUI4] | below the threshold

Target: GRIP2_4, Q9C0E4
Assay: holdup assay
Parameters: key: below the threshold = too weak to quantify, mostly under pKd 3.1 to 4
Conditions: plain residues with an end cap or a label only (N-terminal biotin on a linker: ado-ado)

GRIP2_4, Q9C0E4, sequence (Q9C0E4 446-548): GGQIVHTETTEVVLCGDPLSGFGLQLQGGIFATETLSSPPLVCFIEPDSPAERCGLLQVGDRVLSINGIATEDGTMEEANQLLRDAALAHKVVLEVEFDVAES

Binder | pKd
TKDKVQETQI [LRRC4, Q9HBW1] | below the threshold
LVEEEEPMNL [HDAC7, Q8WUI4] | below the threshold

Target: HTRA1, Q92743
Assay: holdup assay
Parameters: key: below the threshold = too weak to quantify, mostly under pKd 3.1 to 4
Conditions: plain residues with an end cap or a label only (N-terminal biotin on a linker: ado-ado)

HTRA1, Q92743, sequence (Q92743 360-477): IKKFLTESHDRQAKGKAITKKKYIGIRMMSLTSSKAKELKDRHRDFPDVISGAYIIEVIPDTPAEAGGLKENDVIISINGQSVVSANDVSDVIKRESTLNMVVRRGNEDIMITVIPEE

Binder | pKd
TKDKVQETQI [LRRC4, Q9HBW1] | below the threshold
LVEEEEPMNL [HDAC7, Q8WUI4] | 4.16

Target: T3, HTRA4, P83105
Assay: holdup assay
Parameters: key: below the threshold = too weak to quantify, mostly under pKd 3.1 to 4
Conditions: plain residues with an end cap or a label only (N-terminal biotin on a linker: ado-ado)

Binder | pKd
TKDKVQETQI [LRRC4, Q9HBW1] | below the threshold
LVEEEEPMNL [HDAC7, Q8WUI4] | 3.94

Target: Inadl_5, Q8NI35
Assay: holdup assay
Parameters: key: below the threshold = too weak to quantify, mostly under pKd 3.1 to 4
Conditions: plain residues with an end cap or a label only (N-terminal biotin on a linker: ado-ado)

Inadl_5, Q8NI35, sequence (Q8NI35 673-780): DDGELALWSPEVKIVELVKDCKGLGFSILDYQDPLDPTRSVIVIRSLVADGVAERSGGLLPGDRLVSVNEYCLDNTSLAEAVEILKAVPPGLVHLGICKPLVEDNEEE

Binder | pKd
TKDKVQETQI [LRRC4, Q9HBW1] | below the threshold
LVEEEEPMNL [HDAC7, Q8WUI4] | below the threshold

Target: Inadl_6, Q8NI35
Assay: holdup assay
Parameters: key: below the threshold = too weak to quantify, mostly under pKd 3.1 to 4
Conditions: plain residues with an end cap or a label only (N-terminal biotin on a linker: ado-ado)

Inadl_6, Q8NI35, sequence (Q8NI35 1058-1167): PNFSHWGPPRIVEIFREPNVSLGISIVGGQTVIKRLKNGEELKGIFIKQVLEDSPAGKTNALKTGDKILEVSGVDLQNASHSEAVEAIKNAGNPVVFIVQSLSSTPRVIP

Binder | pKd
TKDKVQETQI [LRRC4, Q9HBW1] | 3.85
LVEEEEPMNL [HDAC7, Q8WUI4] | below the threshold

Target: LDB3, O75112
Assay: holdup assay
Parameters: key: below the threshold = too weak to quantify, mostly under pKd 3.1 to 4
Conditions: plain residues with an end cap or a label only (N-terminal biotin on a linker: ado-ado)

LDB3, O75112, sequence (O75112 1-94): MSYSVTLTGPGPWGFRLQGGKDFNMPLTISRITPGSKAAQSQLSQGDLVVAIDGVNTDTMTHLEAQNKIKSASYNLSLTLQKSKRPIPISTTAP

Binder | pKd
TKDKVQETQI [LRRC4, Q9HBW1] | below the threshold
LVEEEEPMNL [HDAC7, Q8WUI4] | below the threshold

Target: LNX1_3, Q8TBB1
Assay: holdup assay
Parameters: key: below the threshold = too weak to quantify, mostly under pKd 3.1 to 4
Conditions: plain residues with an end cap or a label only (N-terminal biotin on a linker: ado-ado)

LNX1_3, Q8TBB1, sequence (Q8TBB1 500-596): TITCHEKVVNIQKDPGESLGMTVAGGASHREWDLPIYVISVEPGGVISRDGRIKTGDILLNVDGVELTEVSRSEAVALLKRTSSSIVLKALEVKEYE

Binder | pKd
TKDKVQETQI [LRRC4, Q9HBW1] | below the threshold
LVEEEEPMNL [HDAC7, Q8WUI4] | below the threshold

Target: MAGI2_3, Q86UL8
Assay: holdup assay
Parameters: key: below the threshold = too weak to quantify, mostly under pKd 3.1 to 4
Conditions: plain residues with an end cap or a label only (N-terminal biotin on a linker: ado-ado)

MAGI2_3, Q86UL8, sequence (Q86UL8 600-682): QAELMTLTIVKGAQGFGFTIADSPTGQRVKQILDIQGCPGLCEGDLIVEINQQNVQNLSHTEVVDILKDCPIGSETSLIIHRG

Binder | pKd
TKDKVQETQI [LRRC4, Q9HBW1] | 3.96
LVEEEEPMNL [HDAC7, Q8WUI4] | below the threshold

Target: MAGI2_4, Q86UL8
Assay: holdup assay
Parameters: key: below the threshold = too weak to quantify, mostly under pKd 3.1 to 4
Conditions: plain residues with an end cap or a label only (N-terminal biotin on a linker: ado-ado)

MAGI2_4, Q86UL8, sequence (Q86UL8 772-865): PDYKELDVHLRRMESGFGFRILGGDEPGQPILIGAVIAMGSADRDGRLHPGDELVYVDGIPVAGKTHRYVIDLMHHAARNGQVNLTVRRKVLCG

Binder | pKd
TKDKVQETQI [LRRC4, Q9HBW1] | 3.72
LVEEEEPMNL [HDAC7, Q8WUI4] | below the threshold

Target: MAGI2_5, Q86UL8
Assay: holdup assay
Parameters: key: below the threshold = too weak to quantify, mostly under pKd 3.1 to 4
Conditions: plain residues with an end cap or a label only (N-terminal biotin on a linker: ado-ado)

MAGI2_5, Q86UL8, sequence (Q86UL8 915-1017): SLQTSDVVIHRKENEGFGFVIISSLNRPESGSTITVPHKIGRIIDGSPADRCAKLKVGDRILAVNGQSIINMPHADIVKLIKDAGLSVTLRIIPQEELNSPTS

Binder | pKd
TKDKVQETQI [LRRC4, Q9HBW1] | 3.96
LVEEEEPMNL [HDAC7, Q8WUI4] | below the threshold

Target: MAST1, Q9Y2H9
Assay: holdup assay
Parameters: key: below the threshold = too weak to quantify, mostly under pKd 3.1 to 4
Conditions: plain residues with an end cap or a label only (N-terminal biotin on a linker: ado-ado)

MAST1, Q9Y2H9, sequence (Q9Y2H9 962-1065): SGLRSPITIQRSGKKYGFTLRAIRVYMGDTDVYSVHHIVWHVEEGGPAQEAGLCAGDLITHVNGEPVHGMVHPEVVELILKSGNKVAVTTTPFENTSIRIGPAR

Binder | pKd
TKDKVQETQI [LRRC4, Q9HBW1] | 4.28
LVEEEEPMNL [HDAC7, Q8WUI4] | 3.61

Target: T4, NHERF3_3, Q5T2W1
Assay: holdup assay
Parameters: key: below the threshold = too weak to quantify, mostly under pKd 3.1 to 4
Conditions: plain residues with an end cap or a label only (N-terminal biotin on a linker: ado-ado)

Binder | pKd
TKDKVQETQI [LRRC4, Q9HBW1] | below the threshold
LVEEEEPMNL [HDAC7, Q8WUI4] | below the threshold

Target: T5, NHERF3_4, Q5T2W1
Assay: holdup assay
Parameters: key: below the threshold = too weak to quantify, mostly under pKd 3.1 to 4
Conditions: plain residues with an end cap or a label only (N-terminal biotin on a linker: ado-ado)

Binder | pKd
TKDKVQETQI [LRRC4, Q9HBW1] | 3.57
LVEEEEPMNL [HDAC7, Q8WUI4] | below the threshold

Target: NHERF4_2, Q86UT5
Assay: holdup assay
Parameters: key: below the threshold = too weak to quantify, mostly under pKd 3.1 to 4
Conditions: plain residues with an end cap or a label only (N-terminal biotin on a linker: ado-ado)

NHERF4_2, Q86UT5, sequence (Q86UT5 220-308): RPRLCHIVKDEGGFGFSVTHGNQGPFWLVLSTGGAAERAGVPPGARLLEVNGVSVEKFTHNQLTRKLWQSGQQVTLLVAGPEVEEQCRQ

Binder | pKd
TKDKVQETQI [LRRC4, Q9HBW1] | below the threshold
LVEEEEPMNL [HDAC7, Q8WUI4] | below the threshold

Target: T6, PDZD2_2, O15018
Assay: holdup assay
Parameters: key: below the threshold = too weak to quantify, mostly under pKd 3.1 to 4
Conditions: plain residues with an end cap or a label only (N-terminal biotin on a linker: ado-ado)

Binder | pKd
TKDKVQETQI [LRRC4, Q9HBW1] | 4.23
LVEEEEPMNL [HDAC7, Q8WUI4] | below the threshold

Target: PICK1, Q9NRD5
Assay: holdup assay
Parameters: key: below the threshold = too weak to quantify, mostly under pKd 3.1 to 4
Conditions: plain residues with an end cap or a label only (N-terminal biotin on a linker: ado-ado)

PICK1, Q9NRD5, sequence (Q9NRD5 17-115): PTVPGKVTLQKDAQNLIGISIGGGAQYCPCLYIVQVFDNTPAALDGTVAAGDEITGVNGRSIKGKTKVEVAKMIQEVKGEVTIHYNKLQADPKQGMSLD

Binder | pKd
TKDKVQETQI [LRRC4, Q9HBW1] | below the threshold
LVEEEEPMNL [HDAC7, Q8WUI4] | 4.11

Target: PTPN3, P26045
Assay: holdup assay
Parameters: key: below the threshold = too weak to quantify, mostly under pKd 3.1 to 4
Conditions: plain residues with an end cap or a label only (N-terminal biotin on a linker: ado-ado)

PTPN3, P26045, sequence (P26045 505-587): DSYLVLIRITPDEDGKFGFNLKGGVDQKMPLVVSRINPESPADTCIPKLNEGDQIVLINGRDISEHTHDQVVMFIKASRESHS

Binder | pKd
TKDKVQETQI [LRRC4, Q9HBW1] | 5.05
LVEEEEPMNL [HDAC7, Q8WUI4] | 4.04

Target: SCRIB_2, Q14160
Assay: holdup assay
Parameters: key: below the threshold = too weak to quantify, mostly under pKd 3.1 to 4
Conditions: plain residues with an end cap or a label only (N-terminal biotin on a linker: ado-ado)

SCRIB_2, Q14160, sequence (Q14160 857-960): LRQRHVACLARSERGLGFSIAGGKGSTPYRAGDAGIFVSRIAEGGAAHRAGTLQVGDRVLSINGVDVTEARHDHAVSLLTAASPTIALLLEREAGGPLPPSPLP

Binder | pKd
TKDKVQETQI [LRRC4, Q9HBW1] | 4.41
LVEEEEPMNL [HDAC7, Q8WUI4] | below the threshold

Target: T7, SIPA1L2, Q9P2F8
Assay: holdup assay
Parameters: key: below the threshold = too weak to quantify, mostly under pKd 3.1 to 4
Conditions: plain residues with an end cap or a label only (N-terminal biotin on a linker: ado-ado)

Binder | pKd
TKDKVQETQI [LRRC4, Q9HBW1] | below the threshold
LVEEEEPMNL [HDAC7, Q8WUI4] | below the threshold

Target: T8, SNTA1, Q13424
Assay: holdup assay
Parameters: key: below the threshold = too weak to quantify, mostly under pKd 3.1 to 4
Conditions: plain residues with an end cap or a label only (N-terminal biotin on a linker: ado-ado)

Binder | pKd
TKDKVQETQI [LRRC4, Q9HBW1] | 4.88
LVEEEEPMNL [HDAC7, Q8WUI4] | below the threshold

Target: T9, SNTG1, Q9NSN8
Assay: holdup assay
Parameters: key: below the threshold = too weak to quantify, mostly under pKd 3.1 to 4
Conditions: plain residues with an end cap or a label only (N-terminal biotin on a linker: ado-ado)

Binder | pKd
TKDKVQETQI [LRRC4, Q9HBW1] | 4.97
LVEEEEPMNL [HDAC7, Q8WUI4] | below the threshold

Target: T10, TJP3_3, O95049
Assay: holdup assay
Parameters: key: below the threshold = too weak to quantify, mostly under pKd 3.1 to 4
Conditions: plain residues with an end cap or a label only (N-terminal biotin on a linker: ado-ado)

Binder | pKd
TKDKVQETQI [LRRC4, Q9HBW1] | below the threshold
LVEEEEPMNL [HDAC7, Q8WUI4] | below the threshold
